Patent publication US20220259295A1 (INSERM INSTITUT NATIONAL DE LA SANT ET DE LA RECHERCHE M …, published 2022)
Where two headings read alike, the source gives them in different places.

T1: human protease nexin-1 (human, UniProt P07093 20-398)
T1 sequence (looked up): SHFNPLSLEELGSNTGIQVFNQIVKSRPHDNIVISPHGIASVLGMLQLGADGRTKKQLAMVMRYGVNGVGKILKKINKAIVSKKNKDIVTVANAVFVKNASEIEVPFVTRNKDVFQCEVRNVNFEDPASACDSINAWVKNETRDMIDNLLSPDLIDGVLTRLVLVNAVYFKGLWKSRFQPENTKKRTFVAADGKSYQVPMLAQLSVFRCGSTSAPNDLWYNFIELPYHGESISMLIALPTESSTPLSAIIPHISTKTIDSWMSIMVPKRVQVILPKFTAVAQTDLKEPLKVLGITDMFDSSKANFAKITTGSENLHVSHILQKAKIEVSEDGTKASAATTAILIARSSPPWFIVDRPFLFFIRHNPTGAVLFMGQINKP

T2: murine protease nexin-1 (murine, UniProt Q07235 20-397)
T2 sequence (looked up): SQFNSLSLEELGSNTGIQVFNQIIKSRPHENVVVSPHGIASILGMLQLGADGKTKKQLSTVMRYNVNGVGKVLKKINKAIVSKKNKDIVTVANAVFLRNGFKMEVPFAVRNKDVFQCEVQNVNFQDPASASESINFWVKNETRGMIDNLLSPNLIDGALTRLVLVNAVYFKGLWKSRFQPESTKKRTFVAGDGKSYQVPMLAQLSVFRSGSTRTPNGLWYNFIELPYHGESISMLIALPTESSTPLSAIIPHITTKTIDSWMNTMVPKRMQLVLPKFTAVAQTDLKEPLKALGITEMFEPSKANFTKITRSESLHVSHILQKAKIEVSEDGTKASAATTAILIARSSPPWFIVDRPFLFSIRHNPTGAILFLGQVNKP

T3: human protease nexin-1 (human, UniProt P07093 20-398)
T3 chain: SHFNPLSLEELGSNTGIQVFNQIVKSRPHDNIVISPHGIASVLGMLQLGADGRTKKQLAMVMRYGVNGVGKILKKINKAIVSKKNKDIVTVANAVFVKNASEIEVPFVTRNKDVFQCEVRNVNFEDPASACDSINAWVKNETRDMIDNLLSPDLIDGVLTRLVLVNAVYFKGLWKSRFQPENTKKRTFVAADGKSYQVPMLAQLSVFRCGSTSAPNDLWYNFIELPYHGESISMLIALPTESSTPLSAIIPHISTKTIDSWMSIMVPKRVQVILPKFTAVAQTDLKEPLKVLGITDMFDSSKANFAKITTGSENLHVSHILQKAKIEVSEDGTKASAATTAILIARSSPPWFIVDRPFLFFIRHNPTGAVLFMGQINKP

T4: murine protease nexin-1 (murine, UniProt Q07235 20-397)
T4 chain: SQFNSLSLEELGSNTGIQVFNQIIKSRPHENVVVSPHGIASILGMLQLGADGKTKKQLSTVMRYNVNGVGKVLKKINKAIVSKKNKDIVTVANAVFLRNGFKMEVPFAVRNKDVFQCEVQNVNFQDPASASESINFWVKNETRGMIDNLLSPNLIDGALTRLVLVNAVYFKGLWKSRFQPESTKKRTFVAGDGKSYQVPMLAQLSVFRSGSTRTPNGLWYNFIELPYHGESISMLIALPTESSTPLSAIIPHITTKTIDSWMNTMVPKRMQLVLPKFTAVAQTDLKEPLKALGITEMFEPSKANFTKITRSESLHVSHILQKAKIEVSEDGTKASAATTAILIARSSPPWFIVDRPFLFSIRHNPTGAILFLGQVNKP

T5: murine plasminogen activator inhibitor-1 (murine, UniProt P22777 23-402)
T5 construct: also called mPAI-1; murine PAI-1
T5 sequence (looked up): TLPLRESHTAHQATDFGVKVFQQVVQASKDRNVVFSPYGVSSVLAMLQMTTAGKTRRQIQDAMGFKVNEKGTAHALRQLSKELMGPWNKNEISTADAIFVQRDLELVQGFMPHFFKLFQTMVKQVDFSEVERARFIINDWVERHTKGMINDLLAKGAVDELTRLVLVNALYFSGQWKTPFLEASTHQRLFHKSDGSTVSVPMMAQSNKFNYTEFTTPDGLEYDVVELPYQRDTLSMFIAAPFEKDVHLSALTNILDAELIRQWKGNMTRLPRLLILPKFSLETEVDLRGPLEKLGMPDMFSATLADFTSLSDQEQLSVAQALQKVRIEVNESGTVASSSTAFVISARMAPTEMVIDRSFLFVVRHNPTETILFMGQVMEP

T6: PN-1 released from TRAP-activated platelets (Homo sapiens (Human), UniProt P07093 20-398)
T6 sequence: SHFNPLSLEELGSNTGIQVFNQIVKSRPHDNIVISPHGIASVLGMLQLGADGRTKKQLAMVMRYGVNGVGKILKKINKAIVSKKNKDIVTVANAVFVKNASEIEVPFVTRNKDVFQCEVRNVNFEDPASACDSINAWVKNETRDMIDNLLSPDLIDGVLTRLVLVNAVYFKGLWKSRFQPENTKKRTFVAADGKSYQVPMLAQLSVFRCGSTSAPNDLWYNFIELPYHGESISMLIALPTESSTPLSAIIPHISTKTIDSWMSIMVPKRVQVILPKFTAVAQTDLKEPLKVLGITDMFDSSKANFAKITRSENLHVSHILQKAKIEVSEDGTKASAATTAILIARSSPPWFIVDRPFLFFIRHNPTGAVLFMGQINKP

B1: A08 (VHH)
VHH: EVQLQASGGGFVQPGGSLRLSCAASGYYSYSSTMGWFRQAPGKEREFVSAISFYSDMAHYYADSVKGRFTISRDNSKNTVYLQMNSLRAEDTATYYCAAFSKLGKIKYWGQGTQVTVSS
notes: Monovalent VHH from the synthetic hs2dAb library; His-tagged, detected by anti-cMyc or anti-6xHis; also called VHH A08; single domain antibody A08; not shown: cMyc tag and 6xHis tag (pHEN2 vector)
B2: B11-A08 (VHH)
chain: EVQLQASGGGFVQPGGSLRLSCAASGSTWFREIMGWFRQAPGKEREFVSAISSDPTWHAYYADSVKGRFTISRDNSKNTVYLQMNSLRAEDTATYYCAPLAGTESIHWWDPWHESSYWGQGTQVTVSSGGGSGGGSGGGSGGGSEVQLQASGGGFVQPGGSLRLSCAASGYYSYSSTMGWFRQAPGKEREFVSAISFYSDMAHYYADSVKGRFTISRDNSKNTVYLQMNSLRAEDTATYYCAAFSKLGKIKYWGQGTQVTVSSHHHHHH
notes: Bivalent (biparatopic) tandem B11-linker-A08; also called bivalent hybribody B11-A08; bivalent VHH B11A08
B3: F06 (VHH)
VHH: EVQLQASGGGFVQPGGSLRLSCAASGDTWSLEIMGWFRQAPGKEREFVSAISSEDGWHAYYADSVKGRFTISRDNSKNTVYLQMNSLRAEDTATYYCAKIENWIQAVEGEMSDYWGQGTQVTVSS
notes: Monovalent VHH from the synthetic hs2dAb library; His-tagged, detected by anti-cMyc or anti-6xHis; also called VHH F06; single domain antibody F06; not shown: cMyc tag and 6xHis tag (pHEN2 vector)
B4: B11 (VHH)
VHH: EVQLQASGGGFVQPGGSLRLSCAASGSTWFREIMGWFRQAPGKEREFVSAISSDPTWHAYYADSVKGRFTISRDNSKNTVYLQMNSLRAEDTATYYCAPLAGTESIHWWDPWHESSYWGQGTQVTVSS
notes: Monovalent VHH from the synthetic hs2dAb library, made in E. coli WK6, purified by its His tag, detected by anti-cMyc or anti-6xHis; also called VHH B11; BI 1; not shown: cMyc tag and 6xHis tag (pHEN2 vector)
B5: B11-Bv (VHH)
chain: EVQLQASGGGFVQPGGSLRLSCAASGSTWFREIMGWFRQAPGKEREFVSAISSDPTWHAYYADSVKGRFTISRDNSKNTVYLQMNSLRAEDTATYYCAPLAGTESIHWWDPWHESSYWGQGTQVTVSSAAAEVQLQASGGGFVQPGGSLRLSCAASGSTWFREIMGWFRQAPGKEREFVSAISSDPTWHAYYADSVKGRFTISRDNSKNTVYLQMNSLRAEDTATYYCAPLAGTESIHWWDPWHESSYWGQGTQVTVSSHHHHHH
notes: Bivalent (monoparatopic) tandem of two B11 VHHs; also called bivalent hybribody B11-Bv; bivalent VHH B11bv
B6: B11-F06 (VHH)
chain: EVQLQASGGGFVQPGGSLRLSCAASGSTWFREIMGWFRQAPGKEREFVSAISSDPTWHAYYADSVKGRFTISRDNSKNTVYLQMNSLRAEDTATYYCAPLAGTESIHWWDPWHESSYWGQGTQVTVSSGGGSGGGSGGGSGGGSEVQLQASGGGFVQPGGSLRLSCAASGDTWSLEIMGWFRQAPGKEREFVSAISSEDGWHAYYADSVKGRFTISRDNSKNTVYLQMNSLRAEDTATYYCAKIENWIQAVEGEMSDYWGQGTQVTVSSHHHHHH
notes: Bivalent (biparatopic) tandem B11-linker-F06; also called bivalent hybribody B11-F06; bivalent VHH B11F06

What was measured:
[1] = target: T1, human protease nexin-1; experiment: cell-based or functional assay
[2] = target: T2, murine protease nexin-1; experiment: cell-based or functional assay
[3] = target: T7, human plasminogen activator inhibitor-1 (human, UniProt P05121 24-402); experiment: non-adsorbed phage ELISA, phage on coated hPAI-1, anti-M13 detection
T7 construct: also called hPAI-1; human PAI-1
T7 sequence (P05121 24-402 limits assumed): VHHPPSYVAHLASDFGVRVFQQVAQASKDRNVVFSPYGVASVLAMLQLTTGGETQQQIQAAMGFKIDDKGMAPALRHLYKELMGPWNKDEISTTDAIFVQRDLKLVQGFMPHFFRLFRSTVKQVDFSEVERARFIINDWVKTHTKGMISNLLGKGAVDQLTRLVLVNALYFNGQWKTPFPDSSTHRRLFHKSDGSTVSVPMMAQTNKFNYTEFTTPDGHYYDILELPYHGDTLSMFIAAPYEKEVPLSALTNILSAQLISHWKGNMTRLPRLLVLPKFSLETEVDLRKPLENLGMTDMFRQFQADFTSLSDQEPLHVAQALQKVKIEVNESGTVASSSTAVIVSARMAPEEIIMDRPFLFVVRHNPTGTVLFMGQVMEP

[4] = target: T3, human protease nexin-1; experiment: inhibition of PN-1 activity (residual thrombin activity, chromogenic substrate)
[5] = target: T4, murine protease nexin-1; experiment: as above
[6] = target: T5, murine plasminogen activator inhibitor-1; experiment: ELISA, PAI-1 captured on anti-PAI-1 mAb, anti-6xHis detection
[7] = target: T6, PN-1 released from TRAP-activated …; experiment: cell-based or functional assay
[8] = target: T7, human plasminogen activator inhibitor-1; experiment: specificity test of Example 1 (refers to FIG. 2E-G)
[9] = target: T3, human protease nexin-1; experiment: inhibition of PN-1 activity (residual thrombin activity, chromogenic substrate)
[10] = target: T4, murine protease nexin-1; experiment: as above
[11] = target: T7, human plasminogen activator inhibitor-1; experiment: ELISA, PAI-1 captured on anti-PAI-1 mAb, anti-6xHis detection

Binder | IC50 (thrombin activity assay, 10 nM PN-1, 1 nM thrombin) [1] [nM] | recovery of thrombin activity (percentage of thrombin alone; 1 nM thrombin, 10 nM PN-1, 10 µM VHH) [1] [%] | IC50 (thrombin activity assay, 10 nM PN-1, 1 nM thrombin) [2] [nM] | recovery of thrombin activity (percentage of thrombin alone; 1 nM thrombin, 10 nM PN-1, 10 µM VHH) [2] [%] | binding result [3] | IC50 [4] [nM] | IC50 [5] [nM] | binding result [6] | modified prothrombin time (PT), murine plasma with 62.5 nM mPN-1 and 288 nM bivalent VHH [2] [s] | thrombin activity restored (supernatant of TRAP-activated platelets, 0.1 nM thrombin, 1 µM bivalent VHH) [7] [%] | binding result [8] | IC50 [9] [nM] | IC50 [10] [nM] | binding result [11]
B1 | 960 | 100 | 2880 | 94 | no binding | 1170 | 3540 | no binding (tested: 10 µg/mL) | – | – | – | – | – | –
B2 | 142 | – | 524 | – | – | – | – | – | 93.2 | 100 | no binding | 139 | 395 | –
B3 | 290 | 100 | 560 | 96 | – | 230 | 670 | no binding (tested: 10 µg/mL) | – | – | – | – | – | no binding (tested: 10 µg/mL)
B4 | 50 | 100 | 1580 | 92 | – | 60 | 1270 | no binding (tested: 10 µg/mL) | – | – | no binding | – | – | –
B5 | 41 | – | 825 | – | – | – | – | – | 83.5 | 97 | no binding | 40 | 509 | –
B6 | 62 | – | 414 | – | – | – | – | – | 83.3 | 88 | no binding | 68 | 254 | –
